{
  "source": "paper doi:10.1101/2021.06.14.448436",
  "target": "human angiotensin-converting enzyme 2 (human) (UniProt Q9BYF1)",
  "sequence (Q9BYF1 18-805)": "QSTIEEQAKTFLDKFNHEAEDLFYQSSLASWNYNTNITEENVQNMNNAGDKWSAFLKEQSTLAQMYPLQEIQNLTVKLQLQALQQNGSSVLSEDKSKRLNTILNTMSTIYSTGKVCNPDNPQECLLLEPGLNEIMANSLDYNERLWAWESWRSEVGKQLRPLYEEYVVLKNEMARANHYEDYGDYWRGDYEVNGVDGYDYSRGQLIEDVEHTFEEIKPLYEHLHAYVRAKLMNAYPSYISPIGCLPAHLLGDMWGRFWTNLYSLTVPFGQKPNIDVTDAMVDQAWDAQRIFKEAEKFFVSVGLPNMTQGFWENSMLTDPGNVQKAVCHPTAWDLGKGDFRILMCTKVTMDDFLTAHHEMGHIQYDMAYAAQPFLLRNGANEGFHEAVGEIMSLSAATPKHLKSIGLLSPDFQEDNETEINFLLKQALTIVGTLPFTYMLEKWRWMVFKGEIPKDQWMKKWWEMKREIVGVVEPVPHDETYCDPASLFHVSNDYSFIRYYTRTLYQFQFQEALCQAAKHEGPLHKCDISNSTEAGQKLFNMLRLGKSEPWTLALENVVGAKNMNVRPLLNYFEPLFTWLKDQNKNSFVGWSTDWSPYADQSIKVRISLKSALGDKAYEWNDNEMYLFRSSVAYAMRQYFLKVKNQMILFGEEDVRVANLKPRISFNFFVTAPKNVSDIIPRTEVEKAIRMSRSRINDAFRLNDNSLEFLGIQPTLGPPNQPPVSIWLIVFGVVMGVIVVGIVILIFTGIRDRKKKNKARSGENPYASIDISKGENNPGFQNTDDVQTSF",
  "experiment": "SPR",
  "data": [
    {"substance": "SARS-CoV-2 trimeric Spike protein, wild-type, prefusion-stabilised", "values": [
      {"measurement": "Kd", "value": 6.4, "unit": "nM"}
    ]}
  ]
}
